From patent publication US20120039904A1 (Kyowa Kirin, published 2012)
Changes are numbered by the printed parent chain.

B1: anti-ASCT2 human chimeric antibody cKM4012 (antibody, V domains shown)
VH: QIQLVQSGPELKKPGETVKISCKASGYTFTTYGMSWVKQTPGKGLKWMGWIHTYSGVPIYGDDSKGRFAFSLETSGSIAYLQINNVKNEDTATYFCARRSDGYRYFFDYWGQGTTLTVSS
VL: DIQMTQITSSLSASLGDRVTISCRASQDIRNYLNWYQQKPDGTVKLLIYYTSRLHSGVPSRFSGSGSGTDYSLTISNLEQEDIATYFCQQGNTLPPTFGGGTKLEIKR
notes: VH and VL of KM4012 joined to human CH and CL of vector pKANTEX93; IgG class
B2: anti-ASCT2 human chimeric antibody cKM4008 (antibody, V domains shown)
VH: B1 VH with Y32F, T40V, S55A, S64F, G76A, I78T, G102N
VL: B1 VL with I7T, Q38R, D41H, N92H
notes: VH and VL of KM4008 joined to human CH and CL of vector pKANTEX93; SDS-PAGE pattern of the IgG class
B3: anti-ASCT2 human chimeric antibody cKM4018 (antibody, V domains shown)
VH: EVQLVESGGGLVQSGRSIRLSCAASGFSFSNYYMAWVRQAPSKGLEWVASITKGGGNTYYRDSVKGRFTFSRDNAKSTLYLQMDSLRSEDTATYYCARQVTIAAVSTSYFDSWGQGVMVTVSS
VL: DIVLTQSPALAVSLGQRATISCKTNQKVDYYGNSYVYWYQQKPGQQPKLLIYLASNLASGIPARFSGRGSGTDFTLTIDPVEADDTATYYCQQSRNLPYTFGAGTKLELKR
notes: VH and VL of KM4018 joined to human CH and CL of vector pKANTEX93; IgG class
B4: anti-ASCT2 humanized antibody KM4008HV2LV3 (antibody, V domains shown)
VH: QVQLVQSGSELKKPGAPVKVSCKASGYTFSTFGMSWVRQAPGQGLKWMGWIHTYAGVPIYGDDFKGRFVFSLDTSVSTAYLQISSLKAEDTAVYFCARRSDNYRYFFDYWGQGTTVTVSS
VL: DIQMTQSPSSLSASLGDRVTITCRASQDIRNYLNWYQQKPGKAPKLLIYYTSRLHSGVPSRFSGSGSGTDYTLTISSLQPEDFATYFCQQGHTLPPTFGQGTKLEIK
notes: Expressed from vector pKANTEX93 with human CH and CL; SDS-PAGE pattern of an IgG class antibody
B5: anti-ASCT2 humanized antibody KM4008HV10LV3 (antibody, V domains shown)
VH: B4 VH with V2I, S9P, V20I, S30T, R38K, L86V, V93T, V116L
VL: B4 VL
notes: as for B4
B6: anti-ASCT2 monoclonal antibody KM4008 (antibody, V domains shown)
VH: B1 VH with Y32F, T40V, S55A, S64F, G76A, I78T, G102N
VL: B1 VL with I7T, Q38R, D41H, N92H
notes: mouse IgG3, kappa (amplified with a mouse Ig kappa primer)
B7: anti-ASCT2 monoclonal antibody KM4012 (antibody, mouse IgG2b, V domains shown)
VH: B1 VH
VL: B1 VL
notes: mouse IgG2b, kappa

molecular target: T1, human ASCT2 (system ASC amino acid transporter 2), endogenous on human tumour cell lines (human, UniProt Q15758 1-541); test: flow cytometry on OPM-2 cells
T1 construct: Endogenous ASCT2 of cell lines KMS-11 (stated to express ASCT2 mRNA), WiDr and OPM-2; also called SLC1A5; ASCT2 on KMS-11, OPM-2, WiDr cells
T1 sequence: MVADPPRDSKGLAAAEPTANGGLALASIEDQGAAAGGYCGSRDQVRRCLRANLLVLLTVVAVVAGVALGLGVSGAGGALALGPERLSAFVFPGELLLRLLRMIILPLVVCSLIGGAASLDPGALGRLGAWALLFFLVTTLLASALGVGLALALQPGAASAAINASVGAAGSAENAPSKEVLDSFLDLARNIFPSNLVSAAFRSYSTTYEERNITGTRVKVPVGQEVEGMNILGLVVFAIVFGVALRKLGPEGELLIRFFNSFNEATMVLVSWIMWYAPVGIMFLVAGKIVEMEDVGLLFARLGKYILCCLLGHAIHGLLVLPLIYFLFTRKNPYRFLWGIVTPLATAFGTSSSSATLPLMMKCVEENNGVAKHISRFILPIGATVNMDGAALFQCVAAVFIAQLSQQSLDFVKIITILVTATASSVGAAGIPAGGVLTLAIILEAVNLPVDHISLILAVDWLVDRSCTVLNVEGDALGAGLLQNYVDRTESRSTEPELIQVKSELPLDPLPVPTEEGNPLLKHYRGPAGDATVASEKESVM
Method: Each of the human ASCT2-myc/His gene-introduced CHO cell obtained in Example 2, and the multiple myeloma cell line OPM-2 (DSMZ Accession No. ACC50) was cultured in a 5% CO₂ incubator for 3 to 4 days at 37° C. The human ASCT2-myc/His gene-introduced CHO cells were detached with a 0.02% EDTA solution (manufactured by Nacalai Tesque), and in order to avoid the non-specific adsorption of antibodies, the cells were blocked for 30 minutes at ice temperature using 1% BSA-PBS.
The cells were seeded into a 96-well U-bottom plate so as to give a density of 1×10⁵ to 5×10⁵ cells/100 μL/well. The plates were centrifugation at 1,500 rpm for 5 minutes (05PR-22, manufactured by Hitachi Koki), and then the supernatant was removed.
As the primary antibody, the purified antibody which was a test substance was diluted to give a final concentration of 0.01 μg/mL to 10 μg/mL in 1% BSA-PBS, and dispensed to the plate at 100 μL/well, followed by reaction at ice temperature for 60 minutes. After washing the cells with 1% BSA-PBS, FITC-labeled anti-human immunoglobulin G (H+L) (manufactured by Jackson Laboratories) diluted with 1% BSA-PBS was added as the secondary antibody, followed by reaction at ice temperature for 30 minutes protected from light. The cells were washed with 1% BSA-PBS and then suspended in PBS. The fluorescence intensity of the cells was measured by a flow cytometer (Cytomics FC500 MPL, manufactured by Beckman Coulter).

Binding result, binds:
B1, B2, B3

molecular target: T2, human ASCT2-myc/His (fusion protein in which myc/His was added to the C-terminal of human ASCT2), expressed … (human, UniProt Q15758 1-541); test: flow cytometry on human ASCT2-myc/His gene-introduced CHO cells
T2 construct: Amino acid transporter with C-terminal myc/His tag, stably expressed in CHO/DG44 cells; cell lysates of these cells were used for Western blotting and immunoprecipitation; also called ASCT2/CHO; human ASCT2-myc/His gene-introduced CHO cell
T2 sequence: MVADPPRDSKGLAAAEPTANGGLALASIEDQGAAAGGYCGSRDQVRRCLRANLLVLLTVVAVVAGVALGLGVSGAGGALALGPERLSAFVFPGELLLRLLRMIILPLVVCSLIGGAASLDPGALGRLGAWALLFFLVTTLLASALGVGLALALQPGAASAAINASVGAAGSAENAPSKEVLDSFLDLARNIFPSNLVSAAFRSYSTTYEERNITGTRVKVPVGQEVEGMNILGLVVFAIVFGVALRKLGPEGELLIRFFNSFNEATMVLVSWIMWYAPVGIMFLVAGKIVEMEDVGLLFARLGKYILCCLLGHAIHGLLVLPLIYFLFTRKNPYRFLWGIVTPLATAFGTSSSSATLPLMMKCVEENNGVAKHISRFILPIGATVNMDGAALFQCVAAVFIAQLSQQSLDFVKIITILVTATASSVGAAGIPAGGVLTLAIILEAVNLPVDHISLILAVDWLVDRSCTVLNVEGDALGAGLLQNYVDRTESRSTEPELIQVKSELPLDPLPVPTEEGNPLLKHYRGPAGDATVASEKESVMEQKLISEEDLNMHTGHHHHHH

Binding result, binds:
B1, B2, B3, B4, B5

molecular target: T1, human ASCT2 (system ASC amino acid …); test: flow cytometry on KMS-11 cells

Binding result, binds:
B6, B7, B4, B5

molecular target: T2, human ASCT2-myc/His (fusion protein in …); test: flow cytometry on human ASCT2/CHO cells; '+' = presence of reactivity

Binding result, binds:
B6, B7

molecular target: T3, mouse EL4 type ASCT2-myc/His (mouse/human chimeric ASCT2), expressed on CHO cells (human/mouse chimera, UniProt Q15758 1-541); test: flow cytometry on mEL4/CHO cells; '+' = presence of reactivity
T3 construct: also called mEL4/CHO; mEL4
T3 sequence: T2 sequence with N367K
Method: Using the mouse ASCT2/CHO and mouse/human chimeric ASCT2/CHO cells constructed in Examples 10 and 11 and FITC-labeled anti-mouse immunoglobulin G (H+L) (manufactured by Dako) or ALEXA488-labeled anti-rat immunoglobulin G […] (manufactured by Invitrogen) as the secondary antibody, the reactivity of anti-ASCT2 monoclonal antibodies KM4008, KM4012 and KM4018 was measured in the same manner as in Example 9(1).
In Table 2, the symbols “+”, “−”, and “±” represent the presence of reactivity, the absence of reactivity, and the decrease in reactivity, respectively.

Binding result, binds:
B6, B7
